# According to patent EP2385124A2 (Arbor Vita Corporation, dated 2011):
# No end group written: not given here. *: point of attachment. Biotin = O=C1N[C@H]2[C@H](CS[C@H]2CCCCC(=O)*)N1
# B1: CDW128B (IL8RB) C-terminal PL peptide AA29.2L (peptide)
# peptide: Biotin-KDSRPSFVGSSSGHTSTTL
# B2: CD34 C-terminal PL peptide AA7L (peptide)
# peptide: Biotin-QATSRNGHSARQHVVADTEL
# B3: CD3n C-terminal PL peptide AA4L (peptide)
# peptide: Biotin-SVFSIPTLWSPWPPSSSSQL
# notes: also called CD3-eta; CD3-η
# B4: CD46 (Form 1) C-terminal PL peptide AA10L (peptide)
# peptide: Biotin-KKGTYLTDETHREVKFTSL
# B5: VCAM1 C-terminal PL peptide AA17L (peptide)
# peptide: Biotin-ARKANMKGSYSLVEAQKSKV
# B6: Neurexin C-terminal PL peptide AA38L (peptide)
# peptide: Biotin-SSAKSSNKNKKNKDKEYYV
# B7: Glycophorin C C-terminal PL peptide AA37L (peptide)
# peptide: Biotin-QGDPALQDAGDSSRKEYFI
# notes: also called GC
# B8: CDW125 (IL5R) C-terminal PL peptide AA28L (peptide)
# peptide: Biotin-EVICYIEKPGVETLEDSVF
# B9: CD44 C-terminal PL peptide AA9L (peptide)
# peptide: Biotin-QFMTADETRNLQNVDMKIGV
# B10: FasL C-terminal PL peptide AA23L-M (peptide)
# peptide: Biotin-SSKSKSSEESQTFFGLYKL
# notes: also called FAS Ligand
# B11: CD83 C-terminal PL peptide AA47L (peptide)
# peptide: Biotin-VTSPNKHLGLVTPHKTELV
# B12: CD138 C-terminal PL peptide AA18L (peptide)
# peptide: Biotin-PKQANGGAYQKPTKQEEFYA
# B13: CD95 (Fas) C-terminal PL peptide AA13L (peptide)
# peptide: Biotin-KDITSDSENSNFRNEIQSLV
# notes: also called AAI3L
# B14: KV1.3 C-terminal PL peptide AA33L (peptide)
# peptide: Biotin-TTNNNPNSAVNIKKIFTDV
# B15: DNAM-1 C-terminal PL peptide AA22L (peptide)
# peptide: Biotin-TREDIYVNYPTFSRRPKTRV
# What was measured:
# [1] = biological target: T1, GST-PSD95 PDZ domains 1-3 fusion protein (human, UniProt P78352 58-395); assay: A/G plate assay (TABLE 2)
# T1 construct: domain: PDZ domains 1-3 (of 3); AA numbers count on the GenBank entry; not shown: glutathione-S transferase (GST) as encoded by vector pGEX-3X (Pharmacia)
# [2] = biological target: T2, GST-MPP1 PDZ domain fusion protein (UniProt Q00013 67-152); assay: A/G plate assay (TABLE 2)
# T2 construct: domain: PDZ domain 1 (of 1); AA numbers count on the GenBank entry; also called 55 Kd erythrocyte membrane protein; not shown: glutathione-S transferase (GST) as encoded by vector pGEX-3X (Pharmacia)
# T2 sequence: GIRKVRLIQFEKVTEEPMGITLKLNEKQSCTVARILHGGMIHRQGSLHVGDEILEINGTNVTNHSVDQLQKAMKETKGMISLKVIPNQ
# [3] = biological target: T3, GST-TIAM1 PDZ domain fusion protein (UniProt Q13009 844-931); assay: A/G plate assay (TABLE 2)
# T3 construct: domain: PDZ 1 (of 1); AA numbers count on the GenBank entry; also called T-lymphoma invasion and metastasis inducing protein 1; not shown: glutathione-S transferase (GST) as encoded by vector pGEX-3X (Pharmacia)
# [4] = biological target: T4, GST-KIAA0303 PDZ domain fusion protein (UniProt O15021 1139-1229); assay: A/G plate assay (TABLE 2)
# T4 construct: domain: PDZ domain 1 (of 1); AA numbers count on the GenBank entry; also called K303; not shown: glutathione-S transferase (GST) as encoded by vector pGEX-3X (Pharmacia)
# T4 sequence: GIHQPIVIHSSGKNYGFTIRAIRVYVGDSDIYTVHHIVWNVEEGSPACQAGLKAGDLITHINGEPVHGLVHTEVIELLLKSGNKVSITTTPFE
# [5] = biological target: T5, GST-AF6 PDZ domain fusion protein (UniProt P55196 1001-1093); assay: A/G plate assay (TABLE 2)
# T5 construct: domain: PDZ domain 1 (of 1); AA numbers count on the GenBank entry; also called af-6 protein; not shown: glutathione-S transferase (GST) as encoded by vector pGEX-3X (Pharmacia)
# T5 sequence: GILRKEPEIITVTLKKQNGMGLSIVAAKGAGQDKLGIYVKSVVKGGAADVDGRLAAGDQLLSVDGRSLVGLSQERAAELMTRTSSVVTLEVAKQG
# [6] = biological target: T6, GST-PTN-4 PDZ domain fusion protein (UniProt P29074 516-604); assay: A/G plate assay (TABLE 2)
# T6 construct: domain: PDZ domain 1 (of 1); AA numbers count on the GenBank entry; also called protein-tyrosine phosphatase meg1; not shown: glutathione-S transferase (GST) as encoded by vector pGEX-3X (Pharmacia)
# T6 sequence: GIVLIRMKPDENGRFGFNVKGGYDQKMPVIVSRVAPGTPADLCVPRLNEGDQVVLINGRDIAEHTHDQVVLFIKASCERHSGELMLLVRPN
# [7] = biological target: T7, GST-prIL16 PDZ domains 1-2 fusion protein (UniProt Q14005 1111-1324); assay: A/G plate assay (TABLE 2)
# T7 construct: domain: PDZ domain 1-2 (of 2); AA numbers count on the GenBank entry; also called putative interleukin 16 precursor; not shown: glutathione-S transferase (GST) as encoded by vector pGEX-3X (Pharmacia)
# T7 sequence: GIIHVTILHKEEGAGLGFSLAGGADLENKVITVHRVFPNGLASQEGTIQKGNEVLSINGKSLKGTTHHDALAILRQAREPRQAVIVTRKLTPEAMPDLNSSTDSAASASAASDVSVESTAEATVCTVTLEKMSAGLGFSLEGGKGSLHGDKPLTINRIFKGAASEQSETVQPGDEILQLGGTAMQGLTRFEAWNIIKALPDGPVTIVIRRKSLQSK
# [8] = biological target: T8, GST-KIAA0561 PDZ domain fusion protein (UniProt O60307 948-1038); assay: A/G plate assay (TABLE 2)
# T8 construct: domain: PDZ domain 1 (of 1); AA numbers count on the GenBank entry; also called K561; not shown: glutathione-S transferase (GST) as encoded by vector pGEX-3X (Pharmacia)
# T8 sequence: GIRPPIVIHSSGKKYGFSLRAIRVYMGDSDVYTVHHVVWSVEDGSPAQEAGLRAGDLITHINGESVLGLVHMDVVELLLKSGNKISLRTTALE
# [9] = biological target: T1, GST-PSD95 PDZ domains 1-3 fusion protein; assay: G assay, biotinylated peptide titrated on plate-bound GST-PDZ, saturation fit (apparent affinity)
# T1 sequence (P78352 other isoform, or with tags, fused parts or gaps): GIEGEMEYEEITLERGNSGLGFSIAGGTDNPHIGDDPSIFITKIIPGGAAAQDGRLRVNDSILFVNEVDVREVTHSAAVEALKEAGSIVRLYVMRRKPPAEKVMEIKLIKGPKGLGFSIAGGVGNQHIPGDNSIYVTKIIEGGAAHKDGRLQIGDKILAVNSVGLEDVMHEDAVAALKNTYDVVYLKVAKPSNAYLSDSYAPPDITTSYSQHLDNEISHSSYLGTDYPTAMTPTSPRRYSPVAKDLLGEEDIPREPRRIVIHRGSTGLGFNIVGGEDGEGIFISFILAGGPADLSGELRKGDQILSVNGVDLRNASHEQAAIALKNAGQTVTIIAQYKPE
# T3 sequence (Q13009 other isoform, or with tags, fused parts or gaps): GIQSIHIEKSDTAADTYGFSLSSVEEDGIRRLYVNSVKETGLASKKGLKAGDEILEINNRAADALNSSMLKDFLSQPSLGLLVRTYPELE
binder,measurement,setting,value
B1,binding result,[1],binds
B2,binding result,[1],binds
B3,binding result,[1],binds
B4,binding result,[1],binds
B5,binding result,[2],binds
same,binding result,[3],binds
same,binding result,[4],binds
B6,binding result,[2],binds
B7,binding result,[2],no binding
same,binding result,[1],binds
same,binding result,[5],binds
B8,binding result,[6],binds
B9,binding result,[2],binds
same,binding result,[7],binds
B10,binding result,[8],binds
B11,binding result,[1],binds
B12,binding result,[3],binds
B13,Kd,[9],85 µM
B14,binding result,[1],binds
B15,binding result,[1],binds
same,binding result,[5],binds
